Key:
Settings in all cases: remark: other sources report otherwise
[1] = molecular target: T1, human recombinant HSP60 (without mitochondrial signal sequence) (human), P10809; assay: transmission electron microscopy (uranyl acetate stain); 1 mM ADP; HSP60 0.1 μM alone or with HSP10 0.2 μM, buffer D, 25 °C, 10 min
[2] = molecular target: T1, human recombinant HSP60 (without …); assay: transmission electron microscopy (uranyl acetate stain); no nucleotide; HSP60 0.1 μM alone or with HSP10 0.2 μM, or GroEL 0.1 μM with GroES 0.2 μM, buffer D (10 mM MgCl2, 20 mM KCl, 1 mM DTT, 50 mM HEPES-KOH pH 7.4), 25 °C, 10 min
[3] = molecular target: T1, human recombinant HSP60 (without …); assay: SEC; Superdex 200 10/300 GL, 0.41 μM HSP60 or GroEL, 0.1 M NaCl, 5% glycerol, 50 mM HEPES-KOH pH 7.4, no nucleotide; size from a calibration curve
[4] = molecular target: T1, human recombinant HSP60 (without …); assay: small angle X-ray scattering (SAXS); 1 mM ATP; 3.0 mg/mL HSP60 or GroEL with various concentrations of co-chaperone, buffer D, 25 °C; self-association: single ring (7) to double ring (14)
[5] = molecular target: T1, human recombinant HSP60 (without …); assay: transmission electron microscopy (uranyl acetate stain); 1 mM ATP; HSP60 (wild type or D398A) 0.1 μM alone or with HSP10 0.2 μM, or GroEL 0.1 μM with GroES 0.2 μM, buffer D, 25 °C, 10 min; more than 500 side views counted, three experiments; self-association: single ring (7) to double ring (14)

stoichiometry N [1]: 7 | stoichiometry N [2]: 7 | stoichiometry N [3]: 7.3 subunits | fraction of double-ring HSP60 (curve fitting, HSP60+ATP) [4]: 0.14 | fraction of single-ring HSP60 (curve fitting, HSP60+ATP) [4]: 0.86 | fraction of single-ring HSP60 without HSP10 (curve fitting, HSP10 and ATP present) [4]: 0.09 | percent of HSP60 in double rings (from I(0)/C, ATP, no HSP10) [4]: 50% | percent of HSP60-containing complexes with the double-ring structure (with HSP10 and ATP) [5]: 80% | percent of HSP60 in double rings, football-type and bullet-type (with HSP10 and ATP) [5]: 70% | percent of side views that are HSP60 (7), single ring alone (with HSP10 and ATP) [5]: 10% | percent of side views that are HSP60 (14), double ring alone (with HSP10 and ATP) [5]: 2%
B1: human recombinant HSP60 (without mitochondrial signal sequence), P10809 27-573 (natural protein)
chain: AKDVKFGADARALMLQGVDLLADAVAVTMGPKGRTVIIEQSWGSPKVTKDGVTVAKSIDLKDKYKNIGAKLVQDVANNTNEEAGDGTTTATVLARSIAKEGFEKISKGANPVEIRRGVMLAVDAVIAELKKQSKPVTTPEEIAQVATISANGDKEIGNIISDAMKKVGRKGVITVKDGKTLNDELEIIEGMKFDRGYISPYFINTSKGQKCEFQDAYVLLSEKKISSIQSIVPALEIANAHRKPLVIIAEDVDGEALSTLVLNRLKVGLQVVAVKAPGFGDNRKNQLKDMAIATGGAVFGEEGLTLNLEDVQPHDLGKVGEVIVTKDDAMLLKGKGDKAQIEKRIQEIIEQLDVTTSEYEKEKLNERLAKLSDGVAVLKVGGTSDVEVNEKKDRVTDALNATRAAVEEGIVLGGGCALLRCIPALDSLTPANEDQKIGIEIIKRTLKIPAMTIAKNAGVEGSLIVEKIMQSSSEVGYDAMAGDFVNMVEKGIIDPTKVVRTALLDAAGVASLLTTAEVVVTEIPKEEKDPGMGAMGGMGGGMGGGMF
